Laboratory results from patent US20240026407A1, “MODIFICATION OF SAPONINS” (GLAXOSMITHKLINE BIOLOGICALS SA, priority 2020, published 2024).

B1: 1059 (protein, listed as Solibacter usitatus)
chain: MVEMSVPVLRSSAFIALLAGLALGADPANITELQRGFQHPPDEARIMVRWWWFGPAVTKPELEREMRLMKQGGIGGFEVQPTYALELDNAEKGIKNLPYMSPEFLEALRFTGEKAKELGLRMDLTLGSGWPFGGPHIPVELASPRLRVARAAVTAGAAAINVPELQPSEKLIAAFLGNQELEAAGSQSFRLPPSAAGQVTFFISSHTRQTVKRPAVGAEGWVLNHYDRAAIEQHFKSVGEPMLNALAKTPPAAIFSDSLEVYNSDWTGDFLAQFAKRRGYDLKPYLPALAGDIGEKTGAIRNDWGQTLSELAEENYLKPLTAWAHQHNTKFRSQTYGIPPVTLSSYSLVDLPEGEGTQWRHFSSTRWATSASHLYNRPVTSSETWTWLHSPVFRATPLDMKAEADLHFLQGVNQLVAHGWPYSPPSVGEPGWRFYAAAVFNEHNPWWIVMPDIATYMQRVSWMLRQGKPVNDVAVYLPTHDAFAGFTLGRDSVNQAMEGILGPKLVPTILDAGYGFDFIDDGAIAAGGVPHKILIVPGAERIPLATYQKIEEYRRDGGKVFFTKRLPSLAPGLREEGDTAKIRELSAKHVVTGDDGLAGALHDALPADFTAPPEIGVVHRKLAYADVYFLANTSNHAVKGAAKFRASGMPAAWWDPVTGKSSKADLNLELAPYESRVLVFSRAGGAVMGQAMSLPEVDISSDWTITFPGEQPVKMATLRPWTDEENRKFYSGTATYERKVTATPAMAAAHVFLNFGEGTVADPASERRAPSGMRAWLESPVREAAQVFVNGKPAGAVWKAPYEVDVTGLLQAGENSIRVVVANLALNVLAKGPLPDYKELTAKYGEKFQAQDMQSVRALPGGMMGPVKLVSK
B2: 1071 (protein, listed as Opitutus terrae)
chain: MKRMKIMKRRIDIFRSSLFLGAYPAMAAPFVQRSAWIWSAEGTHAAPAPESASPSHYQVRLFRRVFLLENGGREGRIAVSADSRYVLYCNGALIGRGPARGDVHHQFYDTYELAPYLHRGANVLAALVLDMSHVAHRPAALGAPGGVMTYAGGFLLEGGVVDLNDRMEILDTGAAGWKVTVDRSYRFQNDGTRFEGYHGYFEHRVSAEAPADWTAASFDDSAWPDATVLYRAERLENRRDPASPYGLVARMIPPMEVGRVARFAAGVLPGGGKPGAEWKRLAAGKGAVTIPARSTVRIILDAGRMTTAYPLVQTDGGPGAHIRLTYAEALRLPWSTVGARMLGRPQSLANLASHFADESSGWTFDARGHVTGWSDRWEPAGRPREVFEPWHWRSFRFVELEIVTAEEPMELTDLGYRFTAYPYRVEAEFACSDPRLERIWQTALHTMRLCSHETFVDCPHYEQMQYAGDTMITSKLAMLSTGDYALSRQALLQFDWSRIPDGLTQSRYPSRLLQVIPSWSLHWITSIRDYACCSGDLQTVNEVLPGVRVVLDWYRRHADPSGLPSRLPYWNITDWCSWWPRGVVPGADEGPTCIISAQFVQALAEAADLHGWVGQRHEQRRLATEVKTLRGVLRRRFWSRDEGLFFDKPGGPEVSQYGNAWAIVCGAATAADRKRMLARFPADPLLAPGSFFCWHAVFRALEAAGAYDRLPEFLGPWHEMVEAGLDTFVEENSYWRSLCHAWSAHPALEFLAGVLGVKALEPGFATVRVTPHRCGLREARGQVCTPRGPITVAWTWEKGRFRIRVTAPRELQVEIGLPDGSDHRMTHGRFETEVVIHEA
B3: 1047 (protein, listed as Brachybacterium faecium)
chain: MSSHTAQHVLDALTHPDPAARPMMRWWWFGPDMDRAEIDRELRAMAAAGLGGAEIALVYPLRPGAPDYLGDEALGHVRHAAERARELGLRLDVTLGSGWSYGGPHIGPEQAARRLRWERRDLGPQPLSWPLTPSWPGDELVSVHLGEGLPPSGWTRLDPVGERLEIPAGRGPRTVLLAWSEVTGQQVKRSAAGAEGPVVDHLSATAVRHHLDVVGGALLSAVPAHLLGSVFSDSLEVYDAGWTAALPEQFRQRRGYDLLPVLHLLEVDAPGAEQVREDYGLTLSELVEEGFVGTCRAWAEEHGVRFRLQGYGQPPITLSAQRGAHLIEGEGAGWTALTQSRWASSAAHLDRREVVSSEVWTWVRSPAFRAAPLDLLGEAHEHLLLGITHFVGHGWPYTAPDAPGLGWTFYAAGALDDRNAWWPAMPELTAHLTRLCAALRLGAPGAEVALYLPYADVRAARGRGHDLWAACRAHIGEQLPAAIRRAGYDLDLLDDDALAALDPAAYPVVVLPRVSRLPAETRRWLDRVRAAGGSVLAVDSPAYPAGQQLSLPEEDGDDARLRDHATLAMVGARGGSDAEGEEGADGEGADGEAAGGKNPLAAALRGAHTPPLLLSGDGGEVGTVHRRLADGDLHLLAHTGPRRREVEVTPRDPRRALALHDPAEPGLRPLPSTGARLVLHPYQAVLLLATDQPLPAPDGAAPATDAAHGPAQTGTAEPEPIALDGPWTASRPGEAPRAVTLPHLLTGQDAADLRPLLLETTVTLDEDTARGPLVLDLGPGRAVPHTGEGSGYRALLEPPVREIAVLEVDGEELGVLWRPPYRIALTGRLRAGTSRLRLRIHGTTAAAAALPENAEAAAGQVAAAHETYGERFQPQELERMLDGVATGLASVPVLRRAGG
B4: 1019 (protein)
chain: MNKKQLILLCMLAAGGSIQAQQWPDAPAEARPGTRWWWLGSAVDEKNLTYNLEEYARAGMGAVEITPIYGVQGNDANDIQFLSPRWMEVLKHTQAEGKRTGIEIDMNTGTGWPFGGPEVSIEDAASKAIFQTYDIEGGQEIVQDINVTDKKQQPYSVLSRVMAYDENGRCINLTSHVRKDKLVWKAPAGKWKVIALYNSKTRQKVKRAAPGGEGYVMNHLSKTAVKNYLSRFNRAFKSSKTSYPHTFFNDSYEVYQADWTEDFLDQFARRRGYKLEEHFPEFLDENRPEISRRIVSDYRETISDLLLENFTRQWTDWAHKNGSITRNQAHGSPANLIDVYAAVDIPECEGFGLSQFHIKGLRQDSLTKKNDSDLSMLKYASSAAHIAGKPYTSTETFTWLTEHFRTSLSQCKPDMDLMFVSGINHMFFHGTPYSPKEAEWPGWLFYASINMNPTNSIWHDAPSFFDYITRCQSFLQMGKPDNDFLIYLPVYDMWDEQPGRLLLFSIHHMAKLAPKFIDAIHRINNSGYDGDYISDNFIRSTRFKDGQLITSGGTGYKALVVPAAHLMPNDVLAHLLKLAQQGATIVFLENYPTDVPGYGQLEQKRKTYQQTLQKLPSVSFSETTVTPVGKGKIITGTDYARTLASCNIPQEEMKTKFGLQAIRRVNDSGHHYFISSLQDKGVNDWVTLGTKAKAAALFNPMTGECGEAKVRQAGEQTQVYLQLKSGESVILQTYQQPLQAARPWKYIQEQPFSLSLDHGWKLHFAESEPKIKGTFDIDRPCSWTGIDHPAAKINMGSGVYSLDIELPALQADDWVLDLGDVRESARVRINGQEAGCAWAVPYQLRVGHLLKSGKNHIEIEVTNLPANRISELDRQGVQWRKFKEINIVDLNYRPANYGHWAPMPSGLNSEVRLIPVDYLSFKTH
modifications: Bacteroides thetaiotaomicron
B5: 1064 (protein, listed as Lachnospiraceae bacterium)
chain: MEIYNLKINGMVNPIGFEYKEIICSWKVRKTEDKQQKKARISISADQEFHEIVFQIEGEELDSTGTLADFKIKPYTTYYWKVYVEGENGEYGTSETAFFETAKMCHKWKADWIGTDKEDTFHPVFQKKFYLRDGIKKARLYCCGLGVYEGYINGKKAGNDYLAPFINDYKDNLQYQTYDITDLLFQQKENKIEFLLGKGWYIGKFGLDGCEKIFGDEMMLIAEIRVEYFDGRIEVICTDDNWKYKGSDIEDSGIYFGEKINRQLWDDRQNLWKQAVKKKQKTPLKERYSLPLTVKEDIVPVKIIHTPIGETVLDVGQNMVGYMEFFADFPKGTRIKIECGEILQHGNFCHDNYTIAESTFEYISDGRKETVRPHFTYMGFRYLRVTGWPNEIKLGDIKCRVIYSDLQRTGFCKTQNSMLNQLYENCIWSQKSNFVDMPTDCPQRGERLGWTGDAQVFAATACYNMDTRAFYRKYLRDIRSHQLRKNGAIPNFIPDLGTFSEACSIWGDAATILPYQIYQSYGCAEEIRSYYTTMKDWVEYMVSMDESQGRHYKFQPGFQFGDWLALDGITEQSLKGSTDDNYIGCCYYYHSVKITSEIAQVLGYTEDAQRYQELSGKIRKAILNEYFTPKGRLSVDTQTAYIIALKFGLYNNKNVLIQQFKERLTRDCYKIKCGFAGTPLLCSVLGENGMEDIAYRILLNKDYPGWLYCVNLGATTVWERWNSVLSDGMLSGTGMNSLNHYAYGSVVQYFYEYIAGIRPKRPGFKEAFIEPKPDIRIQGVMCSYDSAMGVYKSEWKIQENGLICIHIEIPFNCTADVLLPEYSSNGLTYSDNVNGEMISENGKLQLCSGKYDFAYFPKNDYRHVYKPESILGDLREDKEALEILEKNIPVLYEIIQSNDIENMLITLQEFDTLHFMGIDPEIADETRKKIYNLNYYGK

Test: Experiment 6-1: screening of rhamnosidases for derhamnosylation of saponins in treated bark extract (2%), QS-17 2296 to QS-18 2150 (PAR %)
Assay type: biochemical, Quillaja saponaria
Conditions: TBE 2%, pH 7.5, 30 degC, 18 h; TIC peak area ratio percent of rhamnosylated starting saponin to derhamnosylated product, LCMS/MS; negative controls 4.876, 5.225

| Molecule | QS-17 (PAR %) [%] |
| --- | --- |
| B1 | 4.613 |
| B2 | 4.587 |
| B3 | 4.669 |
| B4 | 4.626 |
| B5 | 4.625 |

Test: Experiment 6-1: screening of rhamnosidases for derhamnosylation of saponins in treated bark extract (2%), desglucosyl-QS-17 2134 to QS-21 1988 (PAR %)
Assay type: biochemical, Quillaja saponaria
Conditions: TBE 2%, pH 7.5, 30 degC, 18 h; TIC peak area ratio percent, LCMS/MS; negative controls 2.719, 2.158

| Molecule | Peak75 (PAR %) [%] |
| --- | --- |
| B1 | 2.534 |
| B2 | 2.574 |
| B3 | 2.456 |
| B4 | 2.982 |
| B5 | 2.476 |

Test: Experiment 6-1: screening of rhamnosidases for derhamnosylation of saponins in treated bark extract (2%), QS-17 2310 to QS-18 2164 (PAR %)
Assay type: biochemical, Quillaja saponaria
Conditions: TBE 2%, pH 7.5, 30 degC, 18 h; TIC peak area ratio percent, LCMS/MS; negative controls 3.061, 2.429

| Molecule | Peak57 (PAR %) [%] |
| --- | --- |
| B1 | 2.956 |
| B2 | 2.650 |
| B3 | 3.332 |
| B4 | 2.390 |
| B5 | 3.009 |

Test: Experiment 6-1: specificity of rhamnosidases towards other rhamnose residues (C3 saccharide rhamnose, C28 saccharide rhamnose)
Assay type: biochemical, Quillaja saponaria
Conditions: TBE 2%, pH 7.5, 30 degC, 18 h; LCMS/MS; negative controls 0.18, 0.17

| Molecule | ratio PP/QS-21 |
| --- | --- |
| B1 | 0.16 |
| B2 | 0.17 |
| B3 | 0.17 |
| B4 | 0.15 |
| B5 | 0.18 |
